Reference: PMC4130184

Molecular target: T1, PRIN2;CSP41b (Arabidopsis thaliana?;Arabidopsis thaliana?) (UniProt Q9XIK0+Q9SA52)
T1 sequence 1: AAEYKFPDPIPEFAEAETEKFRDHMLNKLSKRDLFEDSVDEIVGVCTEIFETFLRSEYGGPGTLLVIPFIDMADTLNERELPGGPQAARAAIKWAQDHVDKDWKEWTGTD
T1 sequence 2: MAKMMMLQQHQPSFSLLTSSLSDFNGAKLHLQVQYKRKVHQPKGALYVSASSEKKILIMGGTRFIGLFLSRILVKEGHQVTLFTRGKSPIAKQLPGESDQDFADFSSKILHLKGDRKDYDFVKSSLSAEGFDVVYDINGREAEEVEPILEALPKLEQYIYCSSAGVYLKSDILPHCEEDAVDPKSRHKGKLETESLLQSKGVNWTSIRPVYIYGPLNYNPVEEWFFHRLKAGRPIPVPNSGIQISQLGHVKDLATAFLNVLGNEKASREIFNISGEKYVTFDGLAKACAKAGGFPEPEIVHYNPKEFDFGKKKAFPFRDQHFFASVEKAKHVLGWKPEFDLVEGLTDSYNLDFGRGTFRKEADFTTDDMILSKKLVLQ
Assay: EMSA
Conditions: EMSA: 10 mM Tris-HCl, 25 mM KCl, 1 mM DTT (1x from 10x stock; pH not stated), 1 ug poly(dI-dC) per 25 uL, 2.5% glycerol, 0.05% Triton X-100, 5 mM MgCl2, 10 mM …

Sequence: ACCCACTACGGATCGTATTCAATCGTATTCATATGATTTGGAAAAAATATTCCTAGAGCAATTCTATTTCTATGTATGTGGATTCGCTTCTAATTTATTTCATCGATTACAAAAAATTTTTTATGAATCTAAACTAAAAGGATCTTATCCATTTTACATTGGTTGACATGGCTATATAAGTCATGTTATACTGTTTC (double strand) [psbA promoter probe (197/198 bp)]
- binding: binds
